Assay results: US20170210813A1 (Regeneron, published 2017)
Numbering of substitutions follows the chain as printed. In names and notes the source's numbering stands.

Key:
[1] = molecular target: T1, human PDGFRb.mFc (human); assay: SPR, mAb captured, 25 C
T1 construct: Soluble dimeric construct with mouse Fc; also called hPDGFRb.mFc; soluble human PDGFR-beta.mFc
T1 chain: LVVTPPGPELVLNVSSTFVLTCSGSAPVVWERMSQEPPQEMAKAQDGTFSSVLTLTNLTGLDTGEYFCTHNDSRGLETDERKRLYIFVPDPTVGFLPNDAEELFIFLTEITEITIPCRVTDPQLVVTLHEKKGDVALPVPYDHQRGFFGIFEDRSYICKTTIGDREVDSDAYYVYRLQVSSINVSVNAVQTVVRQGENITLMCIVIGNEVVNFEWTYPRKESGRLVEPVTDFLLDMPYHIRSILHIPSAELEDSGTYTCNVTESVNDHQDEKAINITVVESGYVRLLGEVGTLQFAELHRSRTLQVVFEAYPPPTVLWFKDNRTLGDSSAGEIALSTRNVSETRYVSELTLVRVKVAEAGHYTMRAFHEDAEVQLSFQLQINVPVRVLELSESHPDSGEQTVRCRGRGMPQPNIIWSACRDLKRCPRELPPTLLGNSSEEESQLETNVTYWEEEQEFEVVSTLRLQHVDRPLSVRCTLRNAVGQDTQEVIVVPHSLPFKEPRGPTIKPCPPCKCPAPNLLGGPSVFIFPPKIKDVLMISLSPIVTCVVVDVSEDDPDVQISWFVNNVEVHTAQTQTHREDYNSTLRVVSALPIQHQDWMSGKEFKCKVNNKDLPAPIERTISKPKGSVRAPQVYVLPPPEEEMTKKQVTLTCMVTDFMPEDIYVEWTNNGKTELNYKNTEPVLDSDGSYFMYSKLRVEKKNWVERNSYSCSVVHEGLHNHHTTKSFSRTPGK
Description: (§1) Antibodies, expressed as either mouse Fc (prefix H1M; H2M) or human Fc (prefix H4H), were captured on their respective anti-Fc sensor surfaces (Mab capture format). […] Kinetic association (kₐ) and dissociation (kd) rate constants were determined by processing and fitting the data to a 1:1 binding model using Scrubber 2.0 curve fitting software.

[2] = molecular target: T2, hPDGFRb.mmh (human, UniProt P09619 33-531); assay: SPR, mAb captured, 25 C
T2 construct: Soluble monomeric construct; also called soluble human PDGFR-beta.mmh
Description: as §1

[3] = molecular target: T3, Macaca fascicularis PDGFRb.mmh (Macaca fascicularis); assay: SPR, mAb captured, 25 C
T3 construct: Soluble monomeric construct; also called mfPDGFRb.mmh
T3 chain: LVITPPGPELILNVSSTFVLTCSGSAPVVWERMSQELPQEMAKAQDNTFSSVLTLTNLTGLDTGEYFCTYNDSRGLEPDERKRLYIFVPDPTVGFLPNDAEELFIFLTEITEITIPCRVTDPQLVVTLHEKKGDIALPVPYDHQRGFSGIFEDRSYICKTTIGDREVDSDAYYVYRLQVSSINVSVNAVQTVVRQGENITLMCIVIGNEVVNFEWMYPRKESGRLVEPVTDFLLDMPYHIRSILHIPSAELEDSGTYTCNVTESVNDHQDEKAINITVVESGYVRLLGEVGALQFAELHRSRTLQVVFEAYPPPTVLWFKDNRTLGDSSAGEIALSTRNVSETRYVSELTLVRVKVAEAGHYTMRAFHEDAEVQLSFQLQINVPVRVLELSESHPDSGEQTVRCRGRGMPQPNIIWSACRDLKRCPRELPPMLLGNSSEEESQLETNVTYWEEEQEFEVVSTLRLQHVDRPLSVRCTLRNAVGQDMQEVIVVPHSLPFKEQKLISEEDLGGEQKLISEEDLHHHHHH
Description: as §1

[4] = molecular target: T2, hPDGFRb.mmh; assay: SPR, mAb captured, 37 C
Description: as §1

[5] = molecular target: T2, hPDGFRb.mmh; assay: blocking ELISA, biot-hPDGFRb.mmh to coated PDGF-BB
Description: The equilibrated PDGFR-beta/antibody solutions were added to ligand-coated plates, allowed to incubate for 1 hr, and washed. Levels of bound biot-hPDGFR-beta.mmh were detected using HRP conjugated streptavidin. Data were analyzed using Prism software and IC₅₀ values were calculated as the amount of antibody required to achieve 50% reduction of hPDGFR-beta-mmh bound to ligand. Maximum blocking values were also calculated and reflect the ability of the antibody to block relative to baseline. The absorbance measured at the constant amount of 250 pM biot-hPDGFR-beta-mmh on the dose curve is defined as 0% blocking and the absorbance with no added PDGFR-beta is defined as 100%. The absorbance of the wells containing the highest antibody concentration determined the maximum blocking percent.

[6] = molecular target: full length human PDGFR-beta on HEK293 cells (human, UniProt P09619 33-1106); assay: cell-based or functional assay
[7] = molecular target: T4, human PDGFRb.hFc (human); assay: SPR, mAb captured, 25 C
T4 construct: Soluble dimeric construct with human Fc; also called hPDGFRb.hFc
Description: as §1

[8] = molecular target: T3, Macaca fascicularis PDGFRb.mmh; assay: SPR, mAb captured, 37 C
Description: as §1

[9] = molecular target: T4, human PDGFRb.hFc; assay: SPR, mAb captured, 37 C
Description: as §1

B1: H1M3299N (antibody, mouse IgG1, V domains shown)
VH: QVQLVESGGGVVQPGRSLRLSCAASGFTFSSYGLHWVRQAPGKGLEWVALISNVGSNKYYADSVKGRFTISRDNSKNSLFLQMNSLRAEDTAVYYCAKGADYYYYGMDVWGQGTTVTVSS
VL: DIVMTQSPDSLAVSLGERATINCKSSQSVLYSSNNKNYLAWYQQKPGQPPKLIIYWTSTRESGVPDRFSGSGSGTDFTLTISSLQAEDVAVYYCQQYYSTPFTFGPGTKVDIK
notes: mouse IgG1 Fc (H1M prefix)
Kd [1]: 6.35 nM
koff [1]: 0.000165 s⁻¹
kon [1]: 25900 M⁻¹ s⁻¹
t1/2 [1]: 0.0486 days
Kd [2]: 43.5 nM
koff [2]: 0.00092 s⁻¹
kon [2]: 21100 M⁻¹ s⁻¹
t1/2 [2]: 13 min
binding result [3]: no binding
Kd [4]: 68.6 nM
koff [4]: 0.00217 s⁻¹
kon [4]: 31600 M⁻¹ s⁻¹
t1/2 [4]: 5 min
% Maximum Blocking [5]: 67%
IC50 [5]: 7.6 nM
IC50, blocking PDGF-BB (250 pM) activation, SRE-luciferase [6]: 5.6e-10 M
IC50, blocking PDGF-DD (400 pM) activation, SRE-luciferase [6]: 4.2e-10 M

B2: H4H3095S (antibody, human IgG4, V domains shown)
VH: EVQLVESGGGLVQPGGSLRLSCGASGFTFSSYWMTWVRQAPGKGLEWVGNINQDGSEKYSVDSVKGRFTISRDNAKNSLYLQMNRVRAEDTAVYYCSRDLVPPRQGDNYYYFGMDVWGLGTTVTVSS
VL: DIQMTQSPSTLSASVGDRVIITCRASQNINNWLAWYQQQPGKAPKLLIYEASSLESGVPSRFSGSGSGTEFTLTIGSLQPDDFATYYCQHYNSYSRTFGQGTKVDIK
notes: human IgG4 Fc (H4H prefix)
Kd [2]: 4.78 nM
koff [2]: 0.00136 s⁻¹
kon [2]: 285000 M⁻¹ s⁻¹
t1/2 [2]: 8 min
Kd [3]: 8.5 nM
koff [3]: 0.00175 s⁻¹
kon [3]: 207000 M⁻¹ s⁻¹
t1/2 [3]: 7 min
Kd [7]: 0.72 nM
koff [7]: 0.000232 s⁻¹
kon [7]: 321000 M⁻¹ s⁻¹
t1/2 [7]: 50 min
Kd [4]: 13.8 nM
koff [4]: 0.00624 s⁻¹
kon [4]: 452000 M⁻¹ s⁻¹
t1/2 [4]: 2 min
Kd [8]: 33.3 nM
koff [8]: 0.00797 s⁻¹
kon [8]: 239000 M⁻¹ s⁻¹
t1/2 [8]: 1.5 min
Kd [9]: 1.67 nM
koff [9]: 0.00071 s⁻¹
kon [9]: 425000 M⁻¹ s⁻¹
t1/2 [9]: 16 min
% Maximum Blocking [5]: 82%
IC50 [5]: 1.4 nM
IC50, blocking PDGF-BB (250 pM) activation, SRE-luciferase [6]: 6.1e-10 M
IC50, blocking PDGF-DD (400 pM) activation, SRE-luciferase [6]: 8.2e-10 M

B3: H4H3105S (antibody, human IgG4, V domains shown)
VH: QVQLVESGGSLVQPGGSLRLACTASGFTFSSYWMSWVRQAPGKGLEWVANIQQDENEKYYVDSVKGRFSISRDNAKKSLYLQMNSLRVEDTAVYFCARDLVPPRQGDYYHYFGMDVWGQGTTVTVSS
VL: DIQLTQSPSTLSASVGDRVTITCRASQSISDWLAWYQQKPGKAPNLLIYKASTLESGVPSRFSGSGSGTEFTLTISSLQPDDFATYYCQQYNSYSRTFGQGTKVEIK
notes: human IgG4 Fc (H4H prefix)
Kd [2]: 3.19 nM
koff [2]: 0.000784 s⁻¹
kon [2]: 246000 M⁻¹ s⁻¹
t1/2 [2]: 15 min
Kd [3]: 5.2 nM
koff [3]: 0.000932 s⁻¹
kon [3]: 180000 M⁻¹ s⁻¹
t1/2 [3]: 12 min
Kd [7]: 0.91 nM
koff [7]: 0.000225 s⁻¹
kon [7]: 247000 M⁻¹ s⁻¹
t1/2 [7]: 51 min
Kd [4]: 11.3 nM
koff [4]: 0.00354 s⁻¹
kon [4]: 314000 M⁻¹ s⁻¹
t1/2 [4]: 3 min
Kd [8]: 14.4 nM
koff [8]: 0.00416 s⁻¹
kon [8]: 289000 M⁻¹ s⁻¹
t1/2 [8]: 3 min
Kd [9]: 3 nM
koff [9]: 0.000824 s⁻¹
kon [9]: 280000 M⁻¹ s⁻¹
t1/2 [9]: 14 min
% Maximum Blocking [5]: 86%
IC50 [5]: 0.16 nM
IC50, blocking PDGF-BB (250 pM) activation, SRE-luciferase [6]: 5.8e-10 M
IC50, blocking PDGF-DD (400 pM) activation, SRE-luciferase [6]: 5.1e-10 M

B4: H4H3106S (antibody, human IgG4, V domains shown)
VH: QVQLVESGGGLVQPGGSLRLSCAASGFTFSSYWMSWVRQVPGKGLEWVANMNQDGTEKYYVDSVKGRLTISRENVKNSLYLQMNGLRAEDTAVYYCARDLVPPRQGDYYYYFGMDVWGHGTMVTVSS
VL: B3 VL with D1A, L4M, R18I, N45K, Y49F, T53S, E70D, E105D
notes: human IgG4 Fc (H4H prefix)
Kd [2]: 2.49 nM
koff [2]: 0.000744 s⁻¹
kon [2]: 299000 M⁻¹ s⁻¹
t1/2 [2]: 16 min
Kd [3]: 4.65 nM
koff [3]: 0.000882 s⁻¹
kon [3]: 190000 M⁻¹ s⁻¹
t1/2 [3]: 13 min
Kd [7]: 0.686 nM
koff [7]: 0.000215 s⁻¹
kon [7]: 314000 M⁻¹ s⁻¹
t1/2 [7]: 54 min
Kd [4]: 8.49 nM
koff [4]: 0.00335 s⁻¹
kon [4]: 394000 M⁻¹ s⁻¹
t1/2 [4]: 3 min
Kd [8]: 9.26 nM
koff [8]: 0.00345 s⁻¹
kon [8]: 372000 M⁻¹ s⁻¹
t1/2 [8]: 3 min
Kd [9]: 2.08 nM
koff [9]: 0.000741 s⁻¹
kon [9]: 356000 M⁻¹ s⁻¹
t1/2 [9]: 16 min
% Maximum Blocking [5]: 86%
IC50 [5]: 0.17 nM
IC50, blocking PDGF-BB (250 pM) activation, SRE-luciferase [6]: 7.4e-10 M
IC50, blocking PDGF-DD (400 pM) activation, SRE-luciferase [6]: 5.2e-10 M

B5: H1M3305N (antibody, mouse IgG1, V domains shown)
VH: QLQLQESGPGLVKPSETLSLTCIVSGGSISSSSYYWGWIRQPPGKGLEWIGSLYYSGITFYNPSLKSRVTISVDTSKNQFSLTLTSVTAADTAVFYCARHRVMASSPFDHWGQGTLVTVSS
VL: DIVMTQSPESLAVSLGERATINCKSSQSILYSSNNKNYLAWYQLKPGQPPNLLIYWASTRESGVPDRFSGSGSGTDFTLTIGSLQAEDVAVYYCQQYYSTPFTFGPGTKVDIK
notes: human variable domains with mouse constant domains, mouse IgG1 Fc (H1M prefix)
Kd [1]: ≤ 0.00617 nM
koff [1]: ≤ 1e-06 s⁻¹
kon [1]: 162000 M⁻¹ s⁻¹
t1/2 [1]: 8.02 days
Kd [2]: 0.808 nM
koff [2]: 2.52e-05 s⁻¹
kon [2]: 31200 M⁻¹ s⁻¹
t1/2 [2]: 458 min
Kd [3]: 0.816 nM
koff [3]: 4.16e-05 s⁻¹
kon [3]: 51000 M⁻¹ s⁻¹
t1/2 [3]: 278 min
Kd [4]: 0.88 nM
koff [4]: 0.000102 s⁻¹
kon [4]: 116000 M⁻¹ s⁻¹
t1/2 [4]: 113 min
% Maximum Blocking [5]: 83%
IC50 [5]: 0.085 nM
IC50, blocking PDGF-BB (250 pM) activation, SRE-luciferase [6]: 8.5e-09 M
IC50, blocking PDGF-DD (400 pM) activation, SRE-luciferase [6]: 1.9e-10 M
